Laboratory results reported in publication PMC9822992, “Conformational plasticity of NaK2K and TREK2 potassium channel selectivity filters” (Nature Communications, 2023).
Residue numbers refer to the chain shown, from its start. Numbers in names are those of the source.

Experiments:
[1] = biological target: cysteine-less TREK2 S105C (Gly67 to Glu340); assay: SEC; Superdex-200 10/300, 20 mM Tris, 150 mM KCl, 2 mM DDM, pH 8, 4 °C; oligomer fractions of labelled TREK2 collected
[2] = biological target: the molecule itself; assay: SEC; Superdex-200 10/300, 20 mM Hepes, 150 mM KCl, 5 mM DM, pH 7.5, 4 °C; tetrameric fractions pooled (again after fluorophore labelling)

Work on “cysteine-less TREK2 S105C (Gly67 to Glu340)” yielded a stoichiometry N [1] of 2.

B1: monomeric NaK Δ19 T73C (with F92A) (other)
chain: KDKEFQVLFVLTILTLISGTIFYSTVEGLRPIDALYFSVVTLTTVGDGNFSPQCDFGKIFTILYIFIGIGLVAGFIHKLAVNVQLPSILSNRKKE
notes: NaK channel from Bacillus cereus, Δ19 construct, monomeric; In the cross-linking experiment T73C was reacted with bis-maleimide PEG (Bis-Mal-dPEG3, 3 nm, or Bis-Mal-dPEG11, 6 nm); also called NaK T73C; not shown: His8, C-terminal, kept
In the case of B1, the “stoichiometry N” value [2] is reported as 4.

B2: monomeric NaK2K Δ19 T73C (with F92A) (other)
chain: B1 chain with D47Y, N49D
notes: NaK channel from Bacillus cereus, Δ19 construct, NaK2K mutant (TVGDGN changed to TVGYGD), monomeric; positions 63-68 are worked out from the printed Asn68; Channels 'formed as tetramers of monomeric, not tandem dimeric, constructs'; In the cross-linking experiment T73C was reacted with bis-maleimide PEG (3 nm or 6 nm); also called NaK2K T73C; not shown: His8, C-terminal, kept
B2 was tested, and the “stoichiometry N” value [2] was 4.

B3: tandem dimeric NaK Δ19 T73C (other)
chain: KDKEFQVLFVLTILTLISGTIFYSTVEGLRPIDALYFSVVTLTTVGDGNFSPQCDFGKIFTILYIFIGIGLVFGFIHKLAVNVQLPSILSNRKKEGGGSGGGSKDKEFQVLFVLTILTLISGTIFYSTVEGLRPIDALYFSVVTLTTVGDGNFSPQTDFGKIFTILYIFIGIGLVFGFIHKLAVNVQLPSILSNRKKE
modifications: Alexa Fluor 555 or Alexa Fluor 647 c2 maleimide on T73C
notes: NaK (Na+- and K+-conducting) channel from Bacillus cereus, Δ19 construct, first subunit (S1) of the tandem, carries T73C; linker between the two copies; NaK channel from Bacillus cereus, Δ19 construct, second subunit of the tandem, without cysteine; pET28a; Two tandem dimers form the tetrameric channel; whether a His8 also follows the first copy inside the tandem is not clear; also called NaK …
B3: binds [2].

B4: tandem dimeric NaK2K Δ19 T73C (other)
chain: B3 chain with D47Y, N49D, D150Y, N152D
modifications: Alexa Fluor 555 or Alexa Fluor 647 c2 maleimide on T73C
notes: NaK channel from Bacillus cereus, Δ19 construct, NaK2K mutant (selectivity filter TVGDGN changed to TVGYGD), first subunit (S1) of the tandem, carries T73C; positions 63-68 are worked out from the printed Asn68; linker between the two copies; NaK channel from Bacillus cereus, Δ19 construct, NaK2K mutant (TVGDGN changed to TVGYGD), second subunit of the tandem, without cysteine; pET28a; Two tandem …
B4: binds [2].
